# Source: the DeepSol protein solubility set
# Experiment: soluble on expression in E. coli; label from the status in PepcDB or PDB records
row,Sequence,soluble on expression in E. coli
1,MSLSEKMRRIVEAAGGIVWRWKAGSDIANDPAIASSKSAQEQLDSIEVCIVHRPKYDDWSWPKGKLEQNETHRHAAVREIGEETGSPVKLGPYLCEVEYPLSEEGKKTRHSHDCTADTKHTLYWMAQPISADDAEHLLDAFGPVHRADVGEINDIVWVSVREARKILSHSTDKDTLAVFVDRVQEGAATAQNLLIVRHAKAESRKSWKGTDANRPITPKGAAMAFALNRELACFNPTRLATSPWLRCQETLQVLSWQTERPMEHINTLTEDAFAEHPAVSWLAFREQITQTLNSRETTAICMHRPVIGGMYDHLRGLCARKQLAKQLIAKSPYMPTGTAMSLFIIDTPQGPSIIDIQKVSPIVYEGHHHHHH,soluble
2,MSLSDWIDASFTTKQTDAAKSSSQTKPKSVNQVKLDVPLVNQMTTPRLYNGCEVTSLTMLMNYAHINVTKNELAAKITSVPLTYSDGEHGNPEYGFVGDITGNDPGLGVYHKPIYKLAKTETSQVKDLTGANFDTVIEQLEQGRPVWTITTASFAPVSTMQTWQTPQGSVKVTYDMHSVVIVGFNRTKKLIYINNPYGEKQQAVSWKNFEAAYNQMGKQAIVLTLPHEGHHHHHH,soluble
3,MLAVSGLARSTFFDHQRRLDKPDKYADLKEQITTIFHDSNATFGYRRIWRALRNNNTIVNKKVVQRLMREQGLVSKIRRKKYNSYRGTVSHIADNVLGRRFIQDAPNKVWVSDVTEFRVAGTKVYLSPVMDLFDRTILAHTLSTSPNTQLTSRSLADAIAMFSPGKGLIVHTDQGFQYQHASWRTLIKSVGGVQSMSRKGNCYDNAVMENFFGHLKSEMYYGASFTSVDELCQAIDEYILWYNTYRLQERFKGLAPMQYRNQTLAKTLTV,not soluble
4,MKVRRTEQIYLKENDTISYMCHLSKNLYNQVNYILRQQFLKGEKLTGYRDLVKLFQEPSEIEDHNNYQRLPAQTAQWTVKKTVMAWYSFFKSMKAWKKHPDKFKGRPRLPGYKETDGEFLLVFTNQQCRIRDGILKFPKIMNMEVKTRLNENEIKLKEVRIVPQGTGYMIEIVYEKETADMPITKPKRAMGIDIGVRNLVTIGNNIHEIGIAVKAGLLKSINQYFNKELARYRSINDLQGNERKQTVKIRKLFMKRNRKVKDIMHKVSKSIVEYAKIMNIDTIVIGHNNRWKDSSNMGKKNNQNFVQLPFNMLIYQIKYKAEEIGITVIMQNEDYTSKCSFLDNESIEHHDTYMGKRIHRGIFRSATGKLIHADLQSSYNIIKKAIPEAFANGIEGIGLYPRSLSIRQMITSKGGCLEHHHHHH,not soluble
5,MSLKVIDFRFRPNTPEIISGIANSNMFRAACKAIGFEKRQPQPLEQIVEDLDKRGVVLSVISGRDSETTYGSPANNGSVLAFCRAYPERFIGFWGLDPHKGMAAVRELRHAVNELGMRGASIDPYLAHLRPDDARYYPIYAACCDLNVPVFITTAPPPQVAGAVMDYTDPRHVDIVARDFPELRIVMSHGGYPFVNEAIFACLRNANVYMDCSEYEQAPMAEAYIQAMNGIIQDKVVFASAHPFIEQADALEVYARMPLSDEARHKVMYANACKVLGIEGHHHHHH,soluble
6,MPQALSTDILIVGGGIAGLWLNARLRRAGYATVLVESASLGGGQSVKSQGIIHGGAKYALHGALTGASEAIADMPRRWRACLGSDGELDLRGVRLLSEAHYLWSPGGLAGSLTSFFASKAVRSRVEQAKGEDLPPALRDKGFKGKAYRLTEIVFDVPDLIRRLAELAGDSLLAGERIEPLREGRELAGLCVDGREIRAQRVVLSAGAGNEALLRELGLEQPAMQRRPLHMVMVKAATLKPLYAHCLGAGPKPRITVTTHPTRDGQSVWYLGGDIAETDGVARDEAAQIAEARRELAKLLPWIDLGQAQWATLRVDRAEPAQSNLLRPDNAFLAEQGRLLVGWPTKLALAPDFADRVCARLEEDGIRPSEHAALPQLPRPPLAEPAWEVAFALEHHHHHH,not soluble
7,SNAMPMTLDLQPGQRLARGVARHLRAHGFVSVEEFVPARGLRVDVMGLGPKGEIWVIECKSSRADFQADAKWQGYLEWCDRYFWAVDMEFPAELLPAESGLLIADAYDAEIVRMAPEQKLAPARRKVLIQKFATHAARRLQALRDPEGHGIFE,soluble
8,MNIIDFRFRPNTEAILKGISSNPAFKGMCQSIDFNKMLPQTLEEVVEELDRHHVVKAVISGRDCETTYGAKSNNPSVIEFCHKFPDKFIGFAGLDPHKGMAALAEITHAVHEEGIKGAAIDPYLARIYVNDAKYYPIYAKCCELGIPLIIATGPGTLVPNAVIDHVAPRYIDFVARDFPELKIIASHGGYPWVNEMITVAQRNANVYLELSEYEFFPQSSAYIEAANSILSDKIMYASAHPFVDFKLALKNYEQLPLKPEVREKVMYKNAAKVLGLSDGTFSASKAMDAQEVQMIIENVIAQLSQRGLLANR,not soluble
9,MAGDPMKKRFSNKVLIIGYGSVSQCTLPLLLDKLDIPLENITLIDFEDKSKALKKYTNQGLTFVREKITPENLDQVLSQNMENEGMIIDLSWNIDANEIVKWCHDHDVLYVNTSVEVWDPAEKFLTQSLLEKSLYLRQMRLQELSRDWKDAPTAVVDHGANPGLITHFVKQGLLDIAARTCEDKKVSPEDEQEIALLAKNRDFARLARKLGIRVIHCSERDTQIASRPKEVNEFVGTWSIEGLREEGTAPVEIAWGTHESKLPPLAHIPPYGPKNVILLPQMGVNAWVRSWIPDEEIVGMAIRHGESYGLSKLLTVWEGEKAVYRPTVHYAYMPSHDTLSSLCELRGRNYELQPRLRIMTNEIVSGEDIMGALLMGHSYNSWWTGSALSIEEARSLAPGQNATTLQVAAGIVAAILWMLENPREGVKTPEDLPHDFVLDIARPYLGKFISTPSDWTPLKNRKIFFKESPAVKHDPDPWQFENFIFVGLEHHHHHH,soluble
10,MQARVKWVEGLTFLGESASGHQILMDGNSGDKAPSPMEMVLMAAGGCSAIDVVSILQKGRQDVVDCEVKLTSERREADTRLFTHINLHFIVTGRDLKDAAVARAVDLSAEKYCSVALMLEKAVNITHSYEVVAA,soluble
11,MPHSQTSAPRDSLAGVRLARGASPWLLPTVATAAVSLLRARRSGTAKAVAVPATALAAGMLWFFRDPEREITQGRVVSPADGVVQSIMPWKDGRTRVAIFMSPLNVHVNRAPLAGTVTSVEHVPGGFVPAFNKESENNERVVWHFDTELGDIEMIQIAGAVARRIVPYVPQGTKVEQGERVGLIRFGSRVDLYLPEGVEVDVEVGQKTVAGVTRIDRDLEHHHHHH,not soluble
12,AIAYRDRYPYYDGEVYDDTGVVFPENIERRPNGRRVIVEEPEDYGMPNDRGVEDEYDERNPFRGGHSMQPWNQSPFDHFDRLFETPFAGLDRGSFGGMFGNIEQSLRRLEEDFARGAGRGNAHVYSFSSKKHFGPEGEVYEESTTTTREGNRTEVRRHLKDSAAGNEEYAWKREIDGRGREVIRRRDGSGQEVTKENYYNLTPEERAQFEQQWRTLAREGLDWRGSEGNNASLPQLSDRSSWMEHDRNEHRGGLGGFFRKLFKHD,soluble
13,MKKKADFLELFAVEKPIIGVIHLKGKTDQEIQERAKKEIQIYSEHGVDAILMENYYGDYVQLEKALQYVTSLDLPIPIGVNVLNVDPLGFHLANKYHLQFLQIDSVVGHVKPRDEASLQAFFDLYRAKTTAKLIGGVRFKYQPMLSEKSVEEDLKIAQQRCDAIAVTENATGEETSLEKIKLFRKQLPEFPLIVAAGLNDKSVKEQLAICDAAIVGSNFKDTRKDTGDIYAPYVDSFMKIVKELRGELEHHHHHH,soluble
14,MESITQIYRIGYGPSSSHTIGPRRAAEMFLDRNPRATSFRVTLYGSLAATGKGHLTDAAILAVLEAKAPTEIVWKPEIFQNFHPNGMLFESFDKEGKQLDDWLIYSIGGGVLANEHFNEQ,not soluble
15,MALTSDTQLNDIMRAAEAHKRIRGNLQKILKPGCSVREIIKYVEDSTRIMLHGEKNNGIGFPCGVSLNNVAAHFSLNPWNEDIILTKNDVLKIDFGTHSNGRIVDSAFSVSFDEKYTNLLLATKEATERGIKVIGIDMAVCEIGKEISEVFKSFEFEENGKMINIKPIWNLNGHSIDQYKIHAGISIPSINNGDYSRITPGFFAIETFASTGIGEIKDYGECSHFALASRPTTNKIYDKKNEEILNLIKKEFGTLPFSHQHLLYYTQNAKAAVQLLAARKFIDSYPPLVDIPKSYVAQFEHTLYITEKSKFNISKGDDYEGHHHHHH,soluble
16,MEQLKKQVCDYIESHEEESVKFLKRLIQEKSVSGDESGAQAIVIEKLRELGLELDIWEPSFSKMKDHPYFVSPRTSFSDSPNIVATLKGSGDGKSMILNGHIDVVPEGDVNQWEHHPYSGEKIGNRIYGRGTTDMKGGNVALMLAMEAIIESNIELKGDIYFQSVIEEESGGAGTLATILRGYKADGVIIPEPTNMKFFPKQQGSMWFRLRVKGKAAHGGTRYEGVSAIEKSMFVIEHVRKLEEKRNSRITDPLFKEIPIPIPINIGKIEGGSWPSSVPDELILEGRCGVAPNETIEAAKEEFENWIAELNDVDNWFVENPVEVEWFGARWVPGELEENHELITTLHHNFVEIEGNEPIIEASPWGTDGGLFTQIANVPTIVFGPGETKVAHYPNEYIEVDKMIAAAKIIACTLLDWCEVKK,not soluble
17,MGSDKIHHHHHHMSAPQAMKVLVLCGPESSGKSWLSGVIQAHFGGLVVGEYVRHFIDQQCRDTCYADIPAIARGQLAWEDRAREQAPPLLILDTHLLSNMLWSHALFGDCPTWLEEALLARRYDLHLLLSPQGVDWIADGQRCQPDLSDRQRFFDDSQAWLRRHNQPHQILDGNWPQRQLLALQSVAKLLNSDAPSCPTEC,not soluble
18,MGSDKIHHHHHHVPNEKLSNRDRLLAVRDIFEQYSDEEQTLTLEELSTELSKRGLIEKLSRKSLKEDIAALAKSGFDIHAEETKNGLAIPYHLVSRPFEYHHLRLLVDAIASAKFISESETEVLVRNIHTLTSKRLAKTLTPVIHTVKKPKGVIPFSIDTIQKAIIEQDIISFQYQGKFNERTRKFELRRDGDYYLVTPAHLIVDNGNYYLIGRDERVEEIRTYRVDRIVNCSVFEPAQTPVEVEATYLSSMFNMYGGEQEQLTLKFHESVMPTVVDRFGTDIRCRRLEGDWFEVKVGALFSQGFMMWLIQFAEQAEILEPALCREAFKNKVLELAKVYQAGVPVSPQMNESV,not soluble
19,MSLGSGHMIGVDVGETRVRVELFDLSLAELARTERPLAHKGRQAYDVGVIVGHIRDGVAEVLAAAGITAGELLGVGIGVPGIVERSGEGGAVVHGQTIGWDAVPLEHMLRLSGQLPEHVPYFIDNGAKTLGQAEMWFGAGRGAHNAVVVLFGSGVGACVVTDEVEHGRAVEWGHLTVRVQGRRCRCGALGCLEAYAGAEALLARWQEAGGQPPYDTDEETALTAMLAAAYPEDGRAPDPVAAAVLAETAEYLGAGLSDLINLFQPERILVGGWAGLQLGSRFLESVRTHALAYALRYPAGRVGIELGRLGPDAVTVGAAILPLADFFAHGGRRAEGHHHHHH,soluble
20,MGSDKIHHHHHHMTVLILTNPFDITADDVILRLTERGVPVVRLDPADFPQQVVLHSEIGGNGWTGTLTTPHRILDLSTVTGIWYRRPRKFRLPAQMSQAEYEFAATEARRGFGGIINSLTGWINHPSAIGRAEYKPYQLHHAVQAGLNVPRTLITNDPKQAKGWCARVGDVVYKPLSAPSWLENGDTYVVFTTPITPDQWGDPAIGRTAHMFQQRLDKEFEVRLTMVDGKAFPAAIHAHSDAARIDWRSDYDALTYSIPTVPQRVLTGARDLLRRLHLRYAALDFIVSPDGRWHFLEVNPNGQYGWIEEHTGQPISDAIADALTRKEN,not soluble
